According to the supplement of paper PMC11316812:
± gives the standard deviation of the averaged measurements.

Key:
hTERT-HMEC = experiment: percentage of EdU-negative (G0-arrested) nuclei per well, 72 h; higher = more G0 arrest; settings: reference: sequence is the full UniProt precursor, the tested protein was the secreted form or ectodomain
MCF7 = experiment: as above; settings: reference: sequence is the full UniProt precursor, the tested protein was the secreted form or ectodomain
[1] = protein concentration 0.00625 µM
[2] = protein concentration 0.0625 µM
[3] = protein concentration 0.0225 µM
[4] = protein concentration 0.0082175 µM
[5] = protein concentration 0.01138 µM
[6] = protein concentration 0.082175 µM
[7] = protein concentration 0.1138 µM
[8] = protein concentration 0.02372 µM
[9] = protein concentration 0.2372 µM
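Note: secreted proteins added to cultured cells, EdU pulse at the end, nuclei found by Hoechst imaging, EdU status from nuclear versus surrounding ring intensity ratio, PBS as neutral control.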

Sequence | percentage of EdU-negative (hTERT-HMEC; [3]) | percentage of EdU-negative (hTERT-HMEC; protein concentration 0.225 µM) | percentage of EdU-negative (MCF7; [3]) | percentage of EdU-negative (MCF7; protein concentration 0.225 µM) | also measured
MGKSESQMDITDINTPKPKKKQRWTPLEISLSVLVLLLTIIAVTMIALYATYDDGICKSSDCIKSAARLIQNMDATTEPCTDFFKYACGGWLKRNVIPETSSRYGNFDILRDELEVVLKDVLQEPKTEDIVAVQKAKALYRSCINESAIDSRGGEPLLKLLPDIYGWPVATENWEQKYGASWTAEKAIAQLNSKYGKKVLINLFVGTDDKNSVNHVIHIDQPRLGLPSRDYYECTGIYKEACTAYVDFMISVARLIRQEERLPIDENQLALEMNKVMELEKEIANATAKPEDRNDPMLLYNKMTLAQIQNNFSLEINGKPFSWLNFTNEIMSTVNISITNEEDVVVYAPEYLTKLKPILTKYSARDLQNLMSWRFIMDLVSSLSRTYKESRNAFRKALYGTTSETATWRRCANYVNGNMENAVGRLYVEAAFAGESKHVVEDLIAQIREVFIQTLDDLTWMDAETKKRAEEKALAIKERIGYPDDIVSNDNKLNNEYLELNYKEDEYFENIIQNLKFSQSKQLKKLREKVDKDEWISGAAVVNAFYSSGRNQIVFPAGILQPPFFSAQQSNSLNYGGIGMVIGHEITHGFDDNGRNFNKDGDLVDWWTQQSASNFKEQSQCMVYQYGNFSWDLAGGQHLNGINTLGENIADNGGLGQAYRAYQNYIKKNGEEKLLPGLDLNHKQLFFLNFAQVWCGTYRPEYAVNSIKTDVHSPGNFRIIGTLQNSAEFSEAFHCRKNSYMNPEKKCRVW | – | – | – | – | percentage of EdU-negative (hTERT-HMEC; [1]): 4.08 ± 0.18%; percentage of EdU-negative (hTERT-HMEC; [2]): 5.51 ± 0.24%; percentage of EdU-negative (MCF7; [1]): 25 ± 1.8%; percentage of EdU-negative (MCF7; [2]): 27.41 ± 0.064%
MARRRRRACIALFLVLLFAFGTLMGLRTLKAPDGLPALGPGLELAPFERRPEGAPAPAARAPAAPAAPPPPPPPPRTADPGGSPGPAPAEAEPAPVQSLRVYSDLHAFYYSWYGSPRREGHYIHWDHVMVPHWDPKISASYPRGRHSPPDDLGSSFYPELGPYSSRDPEVLREHMTQLKEAAIGVLVLSWYPPGMADDNGEPSDDLVPAILDTAHQYSIQVAFHIQPYKGRDDITVHDNIKYIIDTYGSHGAFYRYKNSMGKSLPLFYIYDSYLTSPEAWAHLLTPNGPHSIRNTPYDGVFIALLVEEGHTHDILAAGFDGMYTYFASNGFSFGSSHQNWKAVKNFCDANNLMFIPSVGPGYIDTSIRPWNNHNTRNRVNGKYYETALQAALTVRPEIVSITSFNEWHEGTQIEKAIPKKTPTRLYLDYLPHQPSLYLELTRRWAEHFIKEKEQWLM [Q5VSG8] | 4.99 ± 0.62% | 9.23 ± 0.73% | 25.6 ± 0.44% | 28.3 ± 2.4% | –
MRTLTILTAVLLVALQAKAEPLQAEDDPLQAKAYEADAQEQRGANDQDFAVSFAEDASSSLRALGSTRAFTCHCRRSCYSTEYSYGTCTVMGINHRFCCL | 4.63 ± 0.29% | 5.921 ± 0.038% | 26.4 ± 0.96% | 26.4 ± 0.12% | –
MRVLGGRCGALLACLLLVLPVSEANFLSKQQASQVLVRKRRANSLLEETKQGNLERECIEELCNKEEAREVFENDPETDYFYPKYLVCLRSFQTGLFTAARQSTNAYPDLRSCVNAIPDQCSPLPCNEDGYMSCKDGKASFTCTCKPGWQGEKCEFDINECKDPSNINGGCSQICDNTPGSYHCSCKNGFVMLSNKKDCKDVDECSLKPSICGTAVCKNIPGDFECECPEGYRYNLKSKSCEDIDECSENMCAQLCVNYPGGYTCYCDGKKGFKLAQDQKSCEVVSVCLPLNLDTKYELLYLAEQFAGVVLYLKFRLPEISRFSAEFDFRTYDSEGVILYAESIDHSAWLLIALRGGKIEVQLKNEHTSKITTGGDVINNGLWNMVSVEELEHSISIKIAKEAVMDINKPGPLFKPENGLLETKVYFAGFPRKVESELIKPINPRLDGCIRSWNLMKQGASGIKEIIQEKQNKHCLVTVEKGSYYPGSGIAQFHIDYNNVSSAEGWHVNVTLNIRPSTGTGVMLALVSGNNTVPFAVSLVDSTSEKSQDILLSVENTVIYRIQALSLCSDQQSHLEFRVNRNNLELSTPLKIETISHEDLQRQLAVLDKAMKAKVATYLGGLPDVPFSATPVNAFYNGCMEVNINGVQLDLDEAISKHNDIRAHSCPSVWKKTKNS | – | – | – | – | percentage of EdU-negative (hTERT-HMEC; [4]): 4.46 ± 0.51%; percentage of EdU-negative (hTERT-HMEC; [5]): 4.81 ± 0.94%; percentage of EdU-negative (hTERT-HMEC; [6]): 7.16 ± 1.3%; percentage of EdU-negative (hTERT-HMEC; [7]): 5.79 ± 0.86%; percentage of EdU-negative (MCF7; [4]): 25.6 ± 0.65%; percentage of EdU-negative (MCF7; [5]): 28.4 ± 1.6%; percentage of EdU-negative (MCF7; [6]): 27.3 ± 4.3%; percentage of EdU-negative (MCF7; [7]): 28.2 ± 3.1%
MISPVLILFSSFLCHVAIAGRTCPKPDDLPFSTVVPLKTFYEPGEEITYSCKPGYVSRGGMRKFICPLTGLWPINTLKCTPRVCPFAGILENGAVRYTTFEYPNTISFSCNTGFYLNGADSAKCTEEGKWSPELPVCAPIICPPPSIPTFATLRVYKPSAGNNSLYRDTAVFECLPQHAMFGNDTITCTTHGNWTKLPECREVKCPFPSRPDNGFVNYPAKPTLYYKDKATFGCHDGYSLDGPEEIECTKLGNWSAMPSCKASCKVPVKKATVVYQGERVKIQEKFKNGMLHGDKVSFFCKNKEKKCSYTEDAQCIDGTIEVPKCFKEHSSLAFWKTDASDVKPC | – | – | – | – | percentage of EdU-negative (hTERT-HMEC; [8]): 5.35 ± 0.089%; percentage of EdU-negative (hTERT-HMEC; [9]): 5.3 ± 0.56%; percentage of EdU-negative (MCF7; [8]): 28.1 ± 0.39%; percentage of EdU-negative (MCF7; [9]): 24.5 ± 3.1%
MKPALLEVMRMNRICRMVLATCLGSFILVIFYFQSMLHPVMRRNPFGVDICCRKGSRSPLQELYNPIQLELSNTAVLHQMRRDQVTDTCRANSATSRKRRVLTPNDLKHLVVDEDHELIYCYVPKVACTNWKRLMMVLTGRGKYSDPMEIPANEAHVSANLKTLNQYSIPEINHRLKSYMKFLFVREPFERLVSAYRNKFTQKYNISFHKRYGTKIIKRQRKNATQEALRKGDDVKFEEFVAYLIDPHTQREEPFNEHWQTVYSLCHPCHIHYDLVGKYETLEEDSNYVLQLAGVGSYLKFPTYAKSTRTTDEMTTEFFQNISSEHQTQLYEVYKLDFLMFNYSVPSYLKLE [Q9NPF2] | 5.07 ± 0.051% | 18.8 ± 3% | 23.2 ± 1.9% | 24.6 ± 1.8% | –
MKLAFLFLGPMALLLLAGYGCVLGASSGNLRTFVGCAVREFTFLAKKPGCRGLRITTDACWGRCETWEKPILEPPYIEAHHRVCTYNETKQVTVKLPNCAPGVDPFYTYPVAIRCDCGACSTATTECETI [Q86YW7] | 5.52 ± 0.71% | 5.1 ± 0.082% | 25.3 ± 2.8% | 25.8 ± 1.5% | –
